The term stoichiometry N denotes a count of units in the complex or per binding partner.

This test deals with T1, tumor necrosis factor receptor-associated factor 2 (TRAF2) fused to CFP, YFP or mRFP, Q12933.
T1 chain: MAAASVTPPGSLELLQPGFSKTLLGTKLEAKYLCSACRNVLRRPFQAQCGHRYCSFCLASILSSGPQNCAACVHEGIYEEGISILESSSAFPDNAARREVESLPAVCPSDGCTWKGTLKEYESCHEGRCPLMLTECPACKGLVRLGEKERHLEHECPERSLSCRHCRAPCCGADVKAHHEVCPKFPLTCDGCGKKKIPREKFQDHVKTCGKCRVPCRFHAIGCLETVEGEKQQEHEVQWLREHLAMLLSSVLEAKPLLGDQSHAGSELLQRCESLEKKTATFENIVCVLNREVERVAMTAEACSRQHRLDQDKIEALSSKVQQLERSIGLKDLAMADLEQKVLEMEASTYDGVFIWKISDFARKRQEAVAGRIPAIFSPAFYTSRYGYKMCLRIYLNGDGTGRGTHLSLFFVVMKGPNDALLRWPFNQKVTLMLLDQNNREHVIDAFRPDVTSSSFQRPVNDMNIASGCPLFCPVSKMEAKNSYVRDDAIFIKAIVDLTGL
The experiment in a line: FRET or BRET. The conditions noted are these: remark: other sources report otherwise.

B1: tumor necrosis factor receptor-associated factor 2 (TRAF2) fused to CFP, YFP or mRFP, Q12933 1-501 (natural protein)
chain: T1 chain
Consider B1, for which the FRET1 (CFP→YFP) MFI, cells with CFP-TRAF2, YFP-TRAF2 and mRFP is 10.9 MFI; the FRET3 (CFP→mRFP) MFI, cells with CFP-TRAF2, YFP and mRFP-TRAF2 is 32.7 MFI; the stoichiometry N is 3; the two-step FRET (CFP→YFP→mRFP) MFI, cells with CFP-TRAF2, YFP-TRAF2 and mRFP-TRAF2 was 58.6 MFI.

Source of the values: publication PMC1074310.
